Results from PMC12330381, “Evolutionarily diverse caveolins share a common structural framework built around amphipathic disks” (The Journal of Cell Biology, 2025).

How the values were obtained:
[1] = biological target: S. rosetta caveolin (Salpingoeca rosetta); test: cryo-EM structure; single-particle cryo-EM of the complex purified in C12M detergent; C11 symmetry applied in the final refinement
[2] = biological target: the molecule itself; test: as above

stoichiometry N [1] | Molecule | stoichiometry N [2]
11 | S. rosetta caveolin (natural protein) | 
 | S. purpuratus caveolin (natural protein, Strongylocentrotus purpuratus, UniProt A0A7M7T4C2 1-159, looked up, caveolin of Strongylocentrotus purpuratus (purple sea urchin), UniProt A0A7M7T4C2, entire polypeptide (residues 1-159); residues 29-152 modelled in the cryo-EM map; Cloned between NdeI and XhoI of pET20b(+) with a reverse primer without stop codon, so the His tag is probably C-terminal (surmised); also called Strongylocentrotus purpuratus caveolin; Type I-CAV; source: E. coli BL21, purified from …) MELIHPENGPSGTVQVPLIQGVDQSDTEDVYRLSPHVTTGFADTFKESNDIMGFSFMEKVNGAIYKYTHFAFYAVLNLLLAPFIAFSFGLSFAVMHFAVVWFVQPIMKLYYVWLRVFNLAYEPALRLVCDPIHRSIALILSGIKGQFKMNSSDVKTSQV | 11
